The text below walks through data of patent US20230272049A1 (published 2023).

To fix the notation:
T1: HPV16 E7 peptide on HLA-A*02:01 (human)
T1 peptide: YMLDLQPET

B1: E7-11-28 (TCR, V domains shown)
Valpha: GQQVMQIPQYQHVQEGEDFTTYCNSSTTLSNIQWYKQRPGGHPVFLIQLVKSGEVKKQKRLTFQFGEAKKNSSLHITATQTTDVGTYFCAGIGSSNTGKLIFGQGTTLQVKP
Vbeta: EPEVTQTPSHQVTQMGQEVILRCVPISNHLYFYWYRQILGQKVEFLVSFYNNEISEKSEIFDDQFSVERPDGSNFTLKIRSTKLEDSAMYFCAITGRVSYEQYFGPGTRLTVT
B2: E7-11-194 (TCR, V domains shown)
Valpha: GQQVMQIPQYQHVQEGEDFTTYCNSSTTLSNIQWYKQRPGGHPVFLIQLVKSGEVKKQKRLTFQFGEAKKNSSLHITATQTTDVGTYFCAGLGSSNTGKLIFGQGTTLQVKP
Vbeta: EPEVTQTPSHQVTQMGQEVILRCVPISNHLYFYWYRQILGQKVEFLVSFYNNEISEKSEIFDDQFSVERPDGSNFTLKIRSTKLEDSAMYFCATTGRASYEQYFGPGTRLTVT
B3: E7-11-176 (TCR, V domains shown)
Valpha: DQQVKQNSPSLSVQEGRISILNCDYTNSMFDYFLWYKKYPAEGPTFLISISSIKDKNEDGRFTVFLNKSAKHLSLHIVPSQPGDSAVYFCAAKNSNSGYALNFGKGTSLLVTP
Vbeta: not shown
B4: E7-11-455 (TCR, V domains shown)
Valpha: QKEVEQDPGPLSVPEGAIVSLNCTYSNSAFQYFMWYRQYSRKGPELLMYTYSSGNKEDGRFTAQVDKSSKYISLFIRDSQPSDSATYLCAMAGSGNTGKLIFGQGTTLQVKP
Vbeta: DTGVSQDPRHKITKRGQNVTFRCDPISEHNRLYWYRQTLGQGPEFLTYFQNEAQLEKSRLLSDRFSAERPKGSFSTLEIQRTEQGDSAMYLCASSSSTKNIQYFGAGTRLSVL

This assay concerns the target T1, HPV16 E7 peptide on HLA-A*02:01. In words: multimer staining.
Take B1: the binding result is on record as “recognises”.

On to B2, for which the binding result is “recognises”.

For the molecule B3, the binding result is reported as “recognises”.

Turning to B4, the binding result is listed as “recognises”.
